Results taken from PMC3845532 (Biochemistry, 2013).
Substitutions are numbered along the chain they refer to. Names may count otherwise. Values belong to the molecule of their own block, whether it stands above or below them.

Legend:
[1] = target: C81R mutant PCNA protein from S. cerevisiae (S. cerevisiae) (UniProt P15873); experiment: crystal structure
native gel or EMSA = target: the molecule itself; experiment: native gel or EMSA
[2] = target: MutSα (Msh2-Msh6) from S. cerevisiae (S. cerevisiae, UniProt P25847 1-964; Q03834 1-1242); experiment: ELISA
crystal structure = target: the molecule itself; experiment: crystal structure

Sequence of MutSα (Msh2-Msh6) from S. cerevisiae (P25847 whole entry, chain 1 of 2): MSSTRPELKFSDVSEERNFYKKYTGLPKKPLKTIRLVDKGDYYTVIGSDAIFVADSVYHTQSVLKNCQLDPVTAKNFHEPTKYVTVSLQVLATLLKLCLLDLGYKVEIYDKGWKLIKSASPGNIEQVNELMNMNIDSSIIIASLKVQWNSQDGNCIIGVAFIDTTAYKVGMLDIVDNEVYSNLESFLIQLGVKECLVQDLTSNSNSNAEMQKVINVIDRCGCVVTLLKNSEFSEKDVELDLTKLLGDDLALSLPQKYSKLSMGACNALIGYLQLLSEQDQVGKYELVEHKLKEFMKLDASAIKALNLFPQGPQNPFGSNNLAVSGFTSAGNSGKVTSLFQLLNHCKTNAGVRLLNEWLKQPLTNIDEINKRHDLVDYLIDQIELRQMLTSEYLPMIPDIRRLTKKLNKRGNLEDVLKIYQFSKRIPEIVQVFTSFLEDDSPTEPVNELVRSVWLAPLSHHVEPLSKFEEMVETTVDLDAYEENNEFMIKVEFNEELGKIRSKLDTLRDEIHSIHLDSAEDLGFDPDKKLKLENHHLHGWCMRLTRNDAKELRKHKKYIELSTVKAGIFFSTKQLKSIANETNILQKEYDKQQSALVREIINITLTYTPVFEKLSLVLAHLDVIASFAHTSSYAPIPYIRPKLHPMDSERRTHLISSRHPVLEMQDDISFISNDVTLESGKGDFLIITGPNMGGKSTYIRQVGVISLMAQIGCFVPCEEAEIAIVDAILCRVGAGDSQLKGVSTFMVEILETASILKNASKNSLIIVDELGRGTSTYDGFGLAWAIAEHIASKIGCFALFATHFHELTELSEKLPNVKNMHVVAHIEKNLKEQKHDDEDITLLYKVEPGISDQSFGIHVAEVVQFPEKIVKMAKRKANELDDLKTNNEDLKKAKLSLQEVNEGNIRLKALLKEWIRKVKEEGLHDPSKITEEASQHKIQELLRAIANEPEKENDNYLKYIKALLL
Sequence of MutSα (Msh2-Msh6) from S. cerevisiae (Q03834 whole entry, chain 2 of 2): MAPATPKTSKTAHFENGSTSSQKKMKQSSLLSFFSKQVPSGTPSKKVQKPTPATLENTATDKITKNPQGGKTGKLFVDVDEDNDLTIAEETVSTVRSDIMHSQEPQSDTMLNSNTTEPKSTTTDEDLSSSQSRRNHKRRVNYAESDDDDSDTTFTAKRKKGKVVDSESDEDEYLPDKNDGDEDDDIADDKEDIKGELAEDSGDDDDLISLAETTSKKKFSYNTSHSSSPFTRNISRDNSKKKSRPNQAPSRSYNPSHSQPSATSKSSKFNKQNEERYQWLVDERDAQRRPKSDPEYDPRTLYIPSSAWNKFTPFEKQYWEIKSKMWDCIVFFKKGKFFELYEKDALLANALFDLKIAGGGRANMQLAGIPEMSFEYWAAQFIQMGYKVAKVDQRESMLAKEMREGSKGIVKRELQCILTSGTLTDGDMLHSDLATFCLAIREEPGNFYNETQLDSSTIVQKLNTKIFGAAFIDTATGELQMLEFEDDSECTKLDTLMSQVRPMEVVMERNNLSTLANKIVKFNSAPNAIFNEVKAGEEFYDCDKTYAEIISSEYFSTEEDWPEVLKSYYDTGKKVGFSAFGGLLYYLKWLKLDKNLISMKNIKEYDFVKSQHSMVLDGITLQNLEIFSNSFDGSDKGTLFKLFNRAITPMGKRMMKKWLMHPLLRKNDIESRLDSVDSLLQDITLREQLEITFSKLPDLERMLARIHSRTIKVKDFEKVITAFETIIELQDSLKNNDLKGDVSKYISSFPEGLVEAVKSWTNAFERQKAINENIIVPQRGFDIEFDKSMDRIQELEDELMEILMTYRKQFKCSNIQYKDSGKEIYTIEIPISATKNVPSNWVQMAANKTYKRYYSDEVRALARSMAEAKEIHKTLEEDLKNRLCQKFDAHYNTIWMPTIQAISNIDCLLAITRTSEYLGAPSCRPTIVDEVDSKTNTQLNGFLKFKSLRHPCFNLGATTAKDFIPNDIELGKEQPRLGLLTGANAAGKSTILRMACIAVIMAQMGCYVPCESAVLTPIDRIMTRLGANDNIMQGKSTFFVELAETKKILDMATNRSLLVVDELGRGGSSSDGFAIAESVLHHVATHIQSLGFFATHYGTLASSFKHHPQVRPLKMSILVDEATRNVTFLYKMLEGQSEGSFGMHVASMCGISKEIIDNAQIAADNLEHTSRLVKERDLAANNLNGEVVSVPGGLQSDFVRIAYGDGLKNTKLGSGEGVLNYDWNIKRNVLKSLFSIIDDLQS

Molecule: C81R mutant PCNA protein from S. cerevisiae (from UniProt P15873 1-258) (natural protein)
stoichiometry N [1]: 3

B1: wild-type PCNA protein (proliferating cell nuclear antigen) from S. cerevisiae (natural protein)
chain: MLEAKFEEASLFKRIIDGFKDCVQLVNFQCKEDGIIAQAVDDSRVLLVSLEIGVEAFQEYRCDHPVTLGMDLTSLSKILRCGNNTDTLTLIADNTPDSIILLFEDTKKDRIAEYSLKLMDIDADFLKIEELQYDSTLSLPSSEFSKIVRDLSQLSDSINIMITKETIKFVADGDIGSGSVIIKPFVDMEHPETSIKLEMDQPVDLTFGAKYLLDIIKGSSLSDRVGIRLSSEAPALFQFDLKSGFLQFFLAPKFNDEE
stoichiometry N (native gel or EMSA): 3

Further lines, with some results ahead:

binding result [2]: binds
B2: C22Y mutant PCNA protein from S. cerevisiae (natural protein)
chain: B1 chain with C22Y
stoichiometry N (crystal structure): 3

binding result [2]: binds
B3: C81R mutant PCNA protein from S. cerevisiae (natural protein)
chain: B1 chain with C81R
